Measured values as given in the DeepSol protein solubility set.

Test: soluble on expression in E. coli; label from the status in PepcDB or PDB records

Sequence | soluble on expression in E. coli
MICLDCDDLFDTWRLQARWLLSHEIDPSQVSWKSPDAADLFGSEEQYPEQSGPFQARVPLELLQLLQSTSRYRGEQRWSLLYEVLWRVTHGDRTAMMAGDKLGSELHRRLKAVRREAHHLHAFLRFVALPPADNDAAIMRPQYVAWHEPAHDILHSASEHFIGRMGQHRWMIATPQDGVYYDGKQLIHERRCPEAWQTMARQVEDPHGELWLTYYSHIFNPARLNPKVMEGHFPSRFWKNLPE | not soluble
MSITIFNRDLKEIYYEKQYKNGQLKFLYNTILGRMLLKLFISTRLFSKINAIFNNNKGSIKKIEPFINEYKIDMSEYEKKEYTSFDDFFTRKILEGKRSFSKEKSHLISPADSKLMVYEIDDDLKMNIKNSIYTVGELLNDEKLSREYKNGTCLIFRLTVDDYHRYCFIDDGSLKYRKVINGRLHTVGPISSKRYKVYSENNREYSVLKTRNFGKVIQIEVGALLVGKIKNHSIKVFKKGDEKGYFCFGGSTIVLLFKEKVIKMDEDILEYSKAGIETKIKMGEKIGETNDLEHHHHHH | soluble
MSLHGRLRDILRLLMAAEAPVTSSFFAAQLNVTTRTVRNDIKELQGVLSGHGAFVQSVRGSGYKLRIDDEQVFRTLLQDEFQQKKGLPVLPEERMAYLMKRLLLADHYLKLDELAEELFISKSTLQTDLKEVKKRLLPYRIVMETRPNYGFKLRGDEVQMRYCMAEYIVDERETEIDVLNEKADILPKEEIEIIRSAILKKMKNDRIPLSNMGLNNLIIHIAIACKRIRTENYVSLFPKDMDHILHQKEYQAAEAIVKELESKLSVTFPKDETAYITMHLLGTKRMTQSQCGEDTFSIEEETDQLTLAMIKAVDRELKLGILHDKELKIGLALHMKPAISRNRYGMNLRNPMLAAIKEHYPLAFEAGIIAGIVIKEQTGIEIHENEIGYLALHFGAAIERKKTESPPKRCIIVCASGAGSAQLLREKLRSHFGKRLDILGTAEYYSLDQMSYESIDFVISTIPIKKELPVPVLKVNTILGGTDFTKIESILSDEKEKANRYLKKELVFFQEDLRSKEEVIQFLGQKVVECGFADEEIIDSIFEREDMSPTCFGNLVAIPHPLVPQTKTTFWAVCTLKKPIDWESQRVQFVCLLCVEKENKADLQSMYKLLGSILDDPAAMNQLIKCRSYQELSDVFDQKMLSEGHHHHHH | soluble
MWSTIFFVFSTFVLIVDSGSVGLCRTECIEQNSRKIVRVHLKDQLVMAGLCNNNTQQTGSIVTPYVCHRNIGLWTLDELDEEGTVKFETLCPTPEQYPLELRATCPRVDAQHDDTPNEMDIDDYPNSGDTPLSVV | not soluble
MSEAEARPTNFIRQIIDEDLASGKHTTVHTRFPPEPNGYLHIGHAKSICLNFGIAQDYKGQCNLRFDDTNPVKEDIEYVESIKNDVEWLGFHWSGNVRYSSDYFDQLHAYAIELINKGLAYVDELTPEQIREYRGTLTQPGKNSPYRDRSVEENLALFEKMRAGGFEEGKACLRAKIDMASPFIVMRDPVLYRIKFAEHHQTGNKWCIYPMYDFTHCISDALEGITHSLRTLEFQDNRRLYDWVLDNITIPVHPRQYEFSRLNLEYTVMSKRKLNLLVTDKHVEGWDDPRMPTISGLRRRGYTAASIREFCKRIGVTKQDNTIEMASLESCIREDLNENAPRAMAVIDPVKLVIENYQGEGEMVTMPNHPNKPEMGSRQVPFSGEIWIDRADFREEANKQYKRLVLGKEVRLRNAYVIKAERVEKDAEGNITTIFCTYDADTLSKDPADGRKVKGVIHWVSAAHALPVEIRLYDRLFSVPNPGAADDFLSVINPESLVIKQGFAEPSLKDAVAGKAFQFEREGYFCLDSRHSTAEKPVFNRTVGLRDTLEHHHHHH | soluble
SEKAVHSSTTSGPAVPGETTKTGTSIIDTAASAVQSFAPVNQIHQHLCAFHFYADDMARQVEAHHFCSHVNEEMRQCLIYDGPDANARLIGLEYIVSEKLFMTLPDEEKKLWHSHEWEVKGGFLFMPGVPGAIQRKDLDKVAKTYGKVFHFWQVDLGHELPIGLPNVMMAVTRDGQLFHEMIQEAEKRFGVSVEGERDSRAYMSGPELGIHPLANGGGKGMKLELREVDIKPVESVGSVFV | soluble
MSLRITEGSAVIEVPEAYSGPGRRSPGFYNADQVLNRDLTIDLINEFGVEKVLDGFGGSGVRGIRISLETKAKVVIAEISPSSCEIIKQNIAINNAEADLIHDNFQCVSSHIAFDYIDVDPYGSPVPYLDAAIMNVRKGGYLGITATDQSTLTGSTLNKTRRRYGAYIVNDIYRHEMGIRTLIGYIARRAAAFDRYIEPQLSIWNHHYYRVFVKVGKGVNGADKMIENIGYLNKHTTIDNSFKDVNEGPVWLSNLNNAELLEKIRDPRVSKKIEMIKHDNRLLFVDLTDIARKTSLSLPPLAKVMDEIMKHGYEAHRTSFSPTGIKTDCPYAEVSEILKAYAKREGHHHHHH | soluble
MTISGISSDQPFIETIDTLMLGGFPVLSTTPSAFVASLYRSLIEERQQRVFFANTNFIVQCQSLRGRMYSERVCILNDGIGMDLAALFIHGRRFVSNLNGTDLIPYLCQHAPRPLRFFLLGAKPGVADMAAQMLCQLGQLVVGTCDGYAQFVATGEDLVESINASGADVLLVALGNPVQERWILDHDVQLRTPLVFGVGALFDFMSGNVRRAPLWVRRVRGEWLYRLLLEPRRLLKRYSWDLLRFFGVCLLRRREGD | not soluble
MVHHSTKLPKNGGSEPKLVGAYLVSGSRSRIVDLINMIRELNAPILVFTRYPTFYQDLGENIKVIWITQASEDGIPPTKLHVIQDYAIKFAKENKYAVVIIDCVEYLLLYNEFASVFKFLASLKDYLIMMNSALVLAVDEKALDEKYYTLLLNEFEPLLEHHHHHH | soluble
TEKTKAVETTDVALAIDTLVQNGLKALDEMRQLNQEQVDYIVAKASVAALDAHGELALHAVEETGRGVFEDKATKNLFACEHVVNNMRHTKTVGVIEEDDVTGLTLIAEPVGVVCGITPTTNPTSTAIFKSLISLKTRNPIIFAFHPSAQESSAHAARIVRDAAIAAGAPENCVQWIEQPSIDATNALMNHDGIATILATGGNAMVKAAYSCGKPALGVGAGNVPAYVEKSANIRQAAHDIVMSKSFDNGMVCASE | not soluble
MVESGKAQMESFRIDNNGIQKKSRTKFIAGVGKSLRSAKNLTSKTVQTQFVAYPELAQLLPIFPAERLKKLILNGLDGQEYKQLIDLDQWKQARIFHGYAENLIIPIEKFFHFERFDVHLARFTEADALRLRAMIDRSAHFGFAGICCNYMNNSALKRIFNVEHENFYQTPDERSFDVQCRPGEISITKFGYTVE | not soluble
MYSIEVRTHSALHVVKGAVVKVLGSEAKWTYSTYVKGNKGVLIVKFDRKPSDEEIREIERLANEKVKENAPIKIYELPREEAEKMFGEDMYDLFPVPEDVRILKVVVIEDWNVNACNKEHTKTTGEIGPIKIRKVRFRKSKGLLEIHFELLELENPSLEHHHHHH | soluble
MSQSASQDLSDFLGDDRFATVMADPPWRFTNRTGKVAPEHKRLARYPTMTLEDICALPVADYLQDRAHCYLWVPNALLPEGLQVLSAWGFEYKSNIVWHKVRKDGGSDGRGVGFYFRNVTELLLFGTKGKNARTLAPGRRQVNMMQTRKREHSRKPDEQYELIESCSWGPYLEMFGRGVRDGWTVWGNQADADYKPSWKTYSYNSGVAAELEHHHHHH | soluble
TTILKHLPVGQRIGIAFSGGLDTSAALLWMRQKGAVPYAYTANLGQPDEEDYDAIPRRAMEYGAENARLIDCRKQLVAEGIAAIQCGAFHNTTGGLTYFNTTPLGRAVTGTMLVAAMKEDGVNIWGDGSTYKGNDIERFYRYGLLTNAELQIYKPWLDTDFIDELGGRHEMSEFMIACGFDYKMSVEKAYSTDSNMLGATHEAKDLEYLNSSVKIVNPIMGVKFWDESVKIPAEEVTVRFEQGHPVALNGKTFSDDVEMMLEANRIGGRHGLGMSDQIENRIIEAKSRGIYEAPGMALLHIAYERLLTGIHNEDTIEQYHAHGRQLGRLLYQGRWFDSQALMLRDSLQRWVASQITGEVTLELRRGNDYSILNTVSENLTYKPERLTMEKGDSVFSPDDRIGQLTMRNLDITDTREKLFGYAKTGLLSSSAASGVPQVENLENKGQSVEHHHHHH | soluble
MNRLAHHQGIYKFFFTLGLTLQLSKPVIKHLIHIVDALTTKGFSGTLTDIHHWSFHPNHRTTLSHFFTKSPWNEERLLGKLQEWILRRIERKNQPLFVSIDDTICQKTKPSSRATHAIEGCDWHYSHKDHQSVWGHSLVWLMVHTFTQAFPFAFRLYDKKAGRSKIDLAIEMLSSIKVKLTQPVYVLMDSWYPSKTLIEACLKQGFHVIAMLKTNRILYPKGIAIQAKQFARYIEPKDTRLVTVGQERYRVYRYEGAIHGLDDAVVLLAWKADQPMTPEHLHCVLSTDRGLGDEDILRYYAQRWTIECFFRQAKDQLKLDGYRVRHVRAVKRYWAVVLLASVYSIAESRQTLSAGLELLRSRKDHSVVEFIYDAAKQGIPIDVIKKQLRIA | not soluble
MIINKPSRVRPDGRGKVTGELKYMTDLSFPGMLYGKVLRSAYPHAEIVSVCTIKAEKMEGVQAVVTHKDVPGLNRFGIVIPDQPVLCEDRVRYVGDAIAAVAAETEEIAEAALELIQVEYKELEVMDSPEKALRPNAQRLHEDGNILHRAFFSNGDVEEGFQASDTVFEETYELPRQMHTYMETEGGVAVPEDDGGFTMYAGTQHGYKDRFQLARIFDIPEEKIRIVSSPMGGSFGGKDELNIQPYAALLALKSGRPVKIHQTRKESVRSGIKRHPMKITIKTGADHSGNLLAHDVKIVADTGAYATLGPAVLDFSVEHAAGPYRIPNIRTEGISVFTNNGVAGEFRGFGGNQITFALETHLDRLSGMLGIDPLELRRKNIRKPHDLGPLEHRIAPTDGAAQVLNAISKSPILKKTSRNCGYLQRGTGAAITMHGGGLGFGRMDAAGGRLSLSSEGKITASFGFEECGQGILAAIEQIVMEELGCAAEDISIVIGDTAKVPKSGSSTASRGTSMVWHAIQRLKKPFLAQLKKRAAEWSGCSAENLIPGAAGLRDKNTKALVVTYKELAEKGPLAEETAFDFPTTPDPVVGGHFLYSFGAAAVEVEVDLLTGDVKLIDCEHAIAAGPVVSPQGYRGQIEGGAAMALGYTLMEEAKMTDGRYAAENLDHYLIPGIKDVPDMKLIAIEDLMKGDVYGPRGVGEIGTIAITPAIVKAVHDAVGCWINKLPISREELLEAIDRKGLKQWT | not soluble
MTSTPIERAVYIVSDSTGITAETFSHSVLSQFDEVNFKPVRLPFIDTLDKAREVVARINRNALEAGVPPIVFSTLVNPEILALVRQSNGVFLDLFGTFVSHIEQALGLKSSHSIGRSHMAANSEKYRNRIDAINFSLAHDDGQFVNQLDQADVILLGVSRCGKTPTSLYLAMQYAVKAANFPLTPDDFERGALPKTIAPYRGKLFGLSIQPERLAEVRNERRPNSHYARLEQCRYEVAEAERMMRREGISWLSTTTKSIEEIATTVLQEVGLERVAAALEHHHHHH | soluble
MEELKELRKEIDRIDEEILRLLNERAKLAKRIGEIKSKANLPIHVPEREREIFEKILRLNKEVYGGVFPQEALVHIYREIISACLSLEKKIKVAYLGPKATFTHQAALEFFGFSAHYTPCSTIRDVFVEVETKRADYGVVPVENTIEGVVNYTLDMFLESDVKIAGEIVIPITLHLLSASDSIENVEKVYSHKMALAQCRSWLEKNLPSVQVIEVESTAKACEIALEDERAGAVASEVAAYTYHLNILARNIQDSGDNFTRFLVIAKRDLKPTGSDKTSILFGVKDEPGALYKALEVFYKHGINLTKIESRPSKKKAWDYVFFVDLEGHKEEERVEKALKELKEKTQFLKVLGSYPKALLQE | soluble
